Source: paper doi:10.1101/2020.07.02.184341, “Contact with the CsrA core is required for allosteric inhibition by FliW in Bacillus subtilis” (bioRxiv, 2020)

T1: purified untagged wild-type FliW (FliW^WT) (B. subtilis, UniProt P96503 1-143)
T1 construct: FliW, Bacillus subtilis; also called His6-SUMO-FliW^WT before cleavage; source: E. coli Rosetta gami, purified (Ni-NTA, size exclusion chromatography, SUMO tag cleaved)
T1 sequence (looked up): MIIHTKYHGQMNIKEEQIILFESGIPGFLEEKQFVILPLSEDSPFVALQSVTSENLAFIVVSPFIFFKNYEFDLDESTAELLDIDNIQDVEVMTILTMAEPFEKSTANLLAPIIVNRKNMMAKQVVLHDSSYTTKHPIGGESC

T2: purified FliW^K123E (B. subtilis, UniProt P96503 1-143, K123E)
T2 construct: FliW, Bacillus subtilis, with K123E; cloned in pTB146 (SapI/XhoI); source: E. coli Rosetta gami, purified (Ni-NTA, size exclusion chromatography, SUMO tag cleaved)
T2 sequence (looked up): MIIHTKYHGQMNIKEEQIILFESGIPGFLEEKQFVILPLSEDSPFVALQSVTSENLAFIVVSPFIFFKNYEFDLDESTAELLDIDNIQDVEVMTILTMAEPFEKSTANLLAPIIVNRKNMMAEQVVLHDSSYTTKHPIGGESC


Legend:
[1] = target: T1, purified untagged wild-type FliW …; test: pull-down; 0.25 uM GST-CsrA (WT or D41K) on Glutathione-Sepharose beads; FliW at 0.125, 0.167, 0.25, 0.333 and 0.5 uM, 2 h at 4 C in T(0.1) buffer (25 mM Tris-HCl pH 8.0, 20% glycerol, 100 mM NaCl, 1 mM DTT, 1 mg/mL BSA); 4 washes; supernatant and pellet on Western blots; conditions: both partners purified
purified FliW^K123E = target: T2, purified FliW^K123E; test: as above; conditions: both partners purified

| binding result [1] | binding result (purified FliW^K123E) | Binder |
| --- | --- | --- |
| binds |  | GST tagged CsrA (GST-CsrA^WT) (natural protein, B. subtilis, UniProt P33911 1-74, looked up, CsrA, Bacillus subtilis, fused to GST; The D41K form was cloned in pGEX-2TK; source: E. coli Rosetta gami, purified (Glutathione-Sepharose, size exclusion chromatography)) MLVLSRKINEAIQIGADIEVKVIAVEGDQVKLGIDAPKHIDIHRKEIYLTIQEENNRAAALSSDVISALSSQKK |
|  | binds | GST-CsrA^D41K (natural protein, B. subtilis, UniProt P33911 1-74, looked up, CsrA, Bacillus subtilis, with D41K, translational fusion to the GST tag in pGEX-2TK (BamHI/EcoRI); source: E. coli Rosetta gami, purified (Glutathione-Sepharose, size exclusion chromatography)) MLVLSRKINEAIQIGADIEVKVIAVEGDQVKLGIDAPKHIKIHRKEIYLTIQEENNRAAALSSDVISALSSQKK |
